We go through one protein from US20050079613A1 (OREGON HEALTH AND SCIENCE UNIVERSITY, published 2005).

This series concerns the molecule itself. The series is described as follows: anti-Flag immunoprecipitation from metabolically labeled HeLa cells, SDS-PAGE and anti-Flag western blot. A general note: In western blotting, separated proteins are transferred to a membrane and probed.

Protocol: HeLa cells were grown to 80% confluency in 100 mm tissue culture dishes and transfected as above. At 24 hours post-infection, cells were incubated in serum-free and methionine-free medium for 30 minutes, and metabolically labeled with ³⁵S-cysteine/³⁵S-methionine (300 μCi/plate, Amersham) for 2 hr. After labeling, cells were washed twice with PBS and lysed immediately in PBS containing 1% Digitonin and protease inhibitors (Roche, Indianapolis, Ind.). The cell lysate was precleared with protein A/G agarose beads overnight and incubated with 3 μg of antibody for one hour, followed by one hour with protein A/G beads. Immunoprecipated proteins were washed five times with 0.25% Digitonin in PBS. All samples were boiled in Laemmli buffer and analyzed by SDS-PAGE gel electrophoresis. Gels were fixed, dried and exposed to Kodak BioMax MR film. Western blotting was accomplished using the WesternBreeze Chemiluminescent Detection System (Invitrogen), following semi-dry transfer to PVDF membranes (Millipore, Bedford, Mass.).

B1: MARCH-I (enzyme, not shown: small tags and cut ends)
chain: MTSSHVCCNFLNMWKKSKISTMYYLNQDAKLSNLFLQASSPTTGTAPRSQSRLSVCPSTQDICRICHCEGDEESPLITPCRCTGTLRFVHQSCLHQWIKSSDTRCCELCKYDFIMETKLKPLRKWEKLQMTTSERRKIFCSVTFHVIAITCVVWSLYVLIDRTAEEIKQGNDNGVLEWPFWTKLVVVAIGFTGGLVFMYVQCKVYVQLWRRLKAYNRVIFVQNCPDTAKKLEKNFSCNVNTDIKDAVVVPVPQTGANSLPSAEGGPPEVVSV
notes: Whole open reading frame expressed by transfection in HeLa cells; Flag-tagged in the immunoprecipitation; also called MARCHI-Flag; FLJ20668
Turning to B1, the binding result is reported as “binds”.
